B1: Fcmut-12 (antibody, human IgG2, kappa)
heavy: QVQLVQSGAEVKKPGSSVKVSCKASGYSFSSYNIHWVRQAPGQGLEWMGYIAPFQGDSRYNQKFKGRVTITADKSTSTAYMELSSLRSEDTAVYYCARLNRGNSLDYWGQGTLVTVSSASTKGPSVFPLAPCSRSTSESTAALGCLVKDYFPEPVTVSWNSGALTSGVHTFPAVLQSSGLYSLSSVVTVPSSNFGTQTYTCNVDHKPSNTKVDKTVERKCCVECPPCPAPPVAGPSVFLFPPKPKDTLMISRTPEVTCVVVDVSHEDPEVQFNWYVDGVEVHNAKTKPREEQFNSTFRVVSVLTVVHQDWLNGKEYKCKVSNKGLPIEKTISKTKGQPREPQVYTLPPSREEMTKNQVSLTCLVKGFYPSDISVEWESNGQPENNYKTTPPMLDSDGSFFLYSKLTVDKSRWQQGNVFSCSVMHEALHNHYTQKSLSLSPGK
light: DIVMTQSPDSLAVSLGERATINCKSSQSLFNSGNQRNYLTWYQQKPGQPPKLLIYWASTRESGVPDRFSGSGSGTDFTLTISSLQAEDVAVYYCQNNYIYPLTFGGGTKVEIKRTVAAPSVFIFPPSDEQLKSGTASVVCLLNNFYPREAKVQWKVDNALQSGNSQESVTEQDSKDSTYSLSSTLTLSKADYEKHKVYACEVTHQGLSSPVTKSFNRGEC
notes: IgG2-mut: deletion of 329 and 330 (EU index)
B2: Fcmut-16 (antibody, human IgG2, kappa)
heavy: QVQLVQSGAEVKKPGSSVKVSCKASGYSFSSYNIHWVRQAPGQGLEWMGYIAPFQGDSRYNQKFKGRVTITADKSTSTAYMELSSLRSEDTAVYYCARLNRGNSLDYWGQGTLVTVSSASTKGPSVFPLAPCSRSTSESTAALGCLVKDYFPEPVTVSWNSGALTSGVHTFPAVLQSSGLYSLSSVVTVPSSNFGTQTYTCNVDHKPSNTKVDKTVERKCCVECPPCPAPPAAGPSVFLFPPKPKDTLMISRTPEVTCVVVDVSHEDPEVQFNWYVDGVEVHNAKTKPREEQFNSTFRVVSVLTVVHQDWLNGKEYKCKVSNKGLPIEKTISKTKGQPREPQVYTLPPSREEMTKNQVSLTCLVKGFYPSDISVEWESNGQPENNYKTTPPMLDSDGSFFLYSKLTVDKSRWQQGNVFSCSVMHEALHNHYTQKSLSLSPGK
light: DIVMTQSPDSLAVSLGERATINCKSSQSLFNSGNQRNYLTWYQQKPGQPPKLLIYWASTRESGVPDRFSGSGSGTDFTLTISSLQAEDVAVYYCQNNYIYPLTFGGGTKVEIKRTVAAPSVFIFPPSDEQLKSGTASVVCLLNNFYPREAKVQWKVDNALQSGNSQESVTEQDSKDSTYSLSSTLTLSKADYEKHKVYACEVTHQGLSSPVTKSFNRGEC
notes: IgG2-mut: A at 234, deletion of 329 and 330 (EU index)
B3: Fcmut-20 (antibody, human IgG4 S228P, kappa)
heavy: QVQLVQSGAEVKKPGSSVKVSCKASGYSFSSYNIHWVRQAPGQGLEWMGYIAPFQGDSRYNQKFKGRVTITADKSTSTAYMELSSLRSEDTAVYYCARLNRGNSLDYWGQGTLVTVSSASTKGPSVFPLAPCSRSTSESTAALGCLVKDYFPEPVTVSWNSGALTSGVHTFPAVLQSSGLYSLSSVVTVPSSSLGTKTYTCNVDHKPSNTKVDKRVESKYGPPCPPCPAPEFLGGPSVFLFPPKPKDTLMISRTPEVTCVVVDVSQEDPEVQFNWYVDGVEVHNAKTKPREEQFNSTYRVVSVLTVLHQDWLNGKEYKCKVSNKGLSIEKTISKAKGQPREPQVYTLPPSQEEMTKNQVSLTCLVKGFYPSDIAVEWESNGQPENNYKTTPPVLDSDGSFFLYSRLTVDKSRWQEGNVFSCSVMHEALHNHYTQKSLSLSLGK
light: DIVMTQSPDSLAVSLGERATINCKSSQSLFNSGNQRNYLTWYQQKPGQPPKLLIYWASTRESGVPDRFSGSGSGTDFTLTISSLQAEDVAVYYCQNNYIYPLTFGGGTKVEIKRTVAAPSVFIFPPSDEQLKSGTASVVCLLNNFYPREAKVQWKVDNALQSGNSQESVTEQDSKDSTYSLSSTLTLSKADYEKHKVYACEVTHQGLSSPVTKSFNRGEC
notes: IgG4-mut: deletion of 329 and 330 (EU index)
B4: Fcmut-18 (antibody, human IgG4 S228P, kappa)
heavy: QVQLVQSGAEVKKPGSSVKVSCKASGYSFSSYNIHWVRQAPGQGLEWMGYIAPFQGDSRYNQKFKGRVTITADKSTSTAYMELSSLRSEDTAVYYCARLNRGNSLDYWGQGTLVTVSSASTKGPSVFPLAPCSRSTSESTAALGCLVKDYFPEPVTVSWNSGALTSGVHTFPAVLQSSGLYSLSSVVTVPSSSLGTKTYTCNVDHKPSNTKVDKRVESKYGPPCPPCPAPEFLGGPSVFLFPPKPKDTLMISRTPEVTCVVVDVSQEDPEVQFNWYVDGVEVHNAKTKPREEQFNSTYRVVSVLTVLHQDWLNGKEYKCKVSNKGLSSIEKTISKAKGQPREPQVYTLPPSQEEMTKNQVSLTCLVKGFYPSDIAVEWESNGQPENNYKTTPPVLDSDGSFFLYSRLTVDKSRWQEGNVFSCSVMHEALHNHYTQKSLSLSLGK
light: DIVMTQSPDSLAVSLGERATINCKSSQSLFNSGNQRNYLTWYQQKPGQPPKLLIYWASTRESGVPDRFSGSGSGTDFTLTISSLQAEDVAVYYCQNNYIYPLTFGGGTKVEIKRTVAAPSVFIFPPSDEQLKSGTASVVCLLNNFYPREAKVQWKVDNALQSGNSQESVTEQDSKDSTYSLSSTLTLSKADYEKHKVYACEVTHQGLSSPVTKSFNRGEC
notes: IgG4-mut: deletion of 329 (EU index)
B5: Fcmut-19 (antibody, human IgG4 S228P, kappa)
heavy: QVQLVQSGAEVKKPGSSVKVSCKASGYSFSSYNIHWVRQAPGQGLEWMGYIAPFQGDSRYNQKFKGRVTITADKSTSTAYMELSSLRSEDTAVYYCARLNRGNSLDYWGQGTLVTVSSASTKGPSVFPLAPCSRSTSESTAALGCLVKDYFPEPVTVSWNSGALTSGVHTFPAVLQSSGLYSLSSVVTVPSSSLGTKTYTCNVDHKPSNTKVDKRVESKYGPPCPPCPAPEFLGGPSVFLFPPKPKDTLMISRTPEVTCVVVDVSQEDPEVQFNWYVDGVEVHNAKTKPREEQFNSTYRVVSVLTVLHQDWLNGKEYKCKVSNKGLGSIEKTISKAKGQPREPQVYTLPPSQEEMTKNQVSLTCLVKGFYPSDIAVEWESNGQPENNYKTTPPVLDSDGSFFLYSRLTVDKSRWQEGNVFSCSVMHEALHNHYTQKSLSLSLGK
light: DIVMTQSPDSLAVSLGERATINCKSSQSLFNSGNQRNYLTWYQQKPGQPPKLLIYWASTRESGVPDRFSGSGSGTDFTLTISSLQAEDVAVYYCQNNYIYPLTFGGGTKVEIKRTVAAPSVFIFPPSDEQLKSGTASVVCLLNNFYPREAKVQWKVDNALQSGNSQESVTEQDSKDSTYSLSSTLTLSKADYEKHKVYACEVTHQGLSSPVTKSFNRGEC
notes: IgG4-mut: deletion of 329, G at 330 (EU index)
B6: Fcmut-22 (antibody, human IgG4 S228P, kappa, F234A L235A)
heavy: QVQLVQSGAEVKKPGSSVKVSCKASGYSFSSYNIHWVRQAPGQGLEWMGYIAPFQGDSRYNQKFKGRVTITADKSTSTAYMELSSLRSEDTAVYYCARLNRGNSLDYWGQGTLVTVSSASTKGPSVFPLAPCSRSTSESTAALGCLVKDYFPEPVTVSWNSGALTSGVHTFPAVLQSSGLYSLSSVVTVPSSSLGTKTYTCNVDHKPSNTKVDKRVESKYGPPCPPCPAPEAAGGPSVFLFPPKPKDTLMISRTPEVTCVVVDVSQEDPEVQFNWYVDGVEVHNAKTKPREEQFNSTYRVVSVLTVLHQDWLNGKEYKCKVSNKGLSSIEKTISKAKGQPREPQVYTLPPSQEEMTKNQVSLTCLVKGFYPSDIAVEWESNGQPENNYKTTPPVLDSDGSFFLYSRLTVDKSRWQEGNVFSCSVMHEALHNHYTQKSLSLSLGK
light: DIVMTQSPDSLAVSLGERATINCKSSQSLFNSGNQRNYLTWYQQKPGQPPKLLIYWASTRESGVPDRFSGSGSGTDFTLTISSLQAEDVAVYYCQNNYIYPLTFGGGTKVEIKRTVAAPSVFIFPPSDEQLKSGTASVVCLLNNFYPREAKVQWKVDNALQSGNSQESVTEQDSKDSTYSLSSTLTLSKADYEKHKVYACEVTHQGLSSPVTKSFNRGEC
B7: Fcmut-23 (antibody, human IgG4 S228P, kappa, F234A L235A)
heavy: QVQLVQSGAEVKKPGSSVKVSCKASGYSFSSYNIHWVRQAPGQGLEWMGYIAPFQGDSRYNQKFKGRVTITADKSTSTAYMELSSLRSEDTAVYYCARLNRGNSLDYWGQGTLVTVSSASTKGPSVFPLAPCSRSTSESTAALGCLVKDYFPEPVTVSWNSGALTSGVHTFPAVLQSSGLYSLSSVVTVPSSSLGTKTYTCNVDHKPSNTKVDKRVESKYGPPCPPCPAPEAAGGPSVFLFPPKPKDTLMISRTPEVTCVVVDVSQEDPEVQFNWYVDGVEVHNAKTKPREEQFNSTYRVVSVLTVLHQDWLNGKEYKCKVSNKGLGSIEKTISKAKGQPREPQVYTLPPSQEEMTKNQVSLTCLVKGFYPSDIAVEWESNGQPENNYKTTPPVLDSDGSFFLYSRLTVDKSRWQEGNVFSCSVMHEALHNHYTQKSLSLSLGK
light: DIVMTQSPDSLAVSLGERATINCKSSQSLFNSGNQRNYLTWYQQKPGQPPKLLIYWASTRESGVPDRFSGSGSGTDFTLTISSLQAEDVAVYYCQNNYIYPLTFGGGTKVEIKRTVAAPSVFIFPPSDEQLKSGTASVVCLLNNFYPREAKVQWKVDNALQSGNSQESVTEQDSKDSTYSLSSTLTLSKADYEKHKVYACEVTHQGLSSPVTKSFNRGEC
B8: Fcmut-13 (antibody, human IgG2, kappa)
heavy: QVQLVQSGAEVKKPGSSVKVSCKASGYSFSSYNIHWVRQAPGQGLEWMGYIAPFQGDSRYNQKFKGRVTITADKSTSTAYMELSSLRSEDTAVYYCARLNRGNSLDYWGQGTLVTVSSASTKGPSVFPLAPCSRSTSESTAALGCLVKDYFPEPVTVSWNSGALTSGVHTFPAVLQSSGLYSLSSVVTVPSSNFGTQTYTCNVDHKPSNTKVDKTVERKCCVECPPCPAPPAAGPSVFLFPPKPKDTLMISRTPEVTCVVVDVSHEDPEVQFNWYVDGVEVHNAKTKPREEQFNSTFRVVSVLTVVHQDWLNGKEYKCKVSNKGLPAPIEKTISKTKGQPREPQVYTLPPSREEMTKNQVSLTCLVKGFYPSDISVEWESNGQPENNYKTTPPMLDSDGSFFLYSKLTVDKSRWQQGNVFSCSVMHEALHNHYTQKSLSLSPGK
light: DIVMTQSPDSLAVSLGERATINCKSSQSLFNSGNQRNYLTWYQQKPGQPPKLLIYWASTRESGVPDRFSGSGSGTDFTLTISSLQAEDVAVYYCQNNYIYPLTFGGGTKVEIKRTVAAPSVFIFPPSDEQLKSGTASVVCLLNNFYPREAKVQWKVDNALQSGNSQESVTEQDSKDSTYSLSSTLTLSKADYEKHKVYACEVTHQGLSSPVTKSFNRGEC
notes: IgG2-mut: A at 234 (EU index)
B9: Fcmut-10 (antibody, human IgG2, kappa)
heavy: QVQLVQSGAEVKKPGSSVKVSCKASGYSFSSYNIHWVRQAPGQGLEWMGYIAPFQGDSRYNQKFKGRVTITADKSTSTAYMELSSLRSEDTAVYYCARLNRGNSLDYWGQGTLVTVSSASTKGPSVFPLAPCSRSTSESTAALGCLVKDYFPEPVTVSWNSGALTSGVHTFPAVLQSSGLYSLSSVVTVPSSNFGTQTYTCNVDHKPSNTKVDKTVERKCCVECPPCPAPPVAGPSVFLFPPKPKDTLMISRTPEVTCVVVDVSHEDPEVQFNWYVDGVEVHNAKTKPREEQFNSTFRVVSVLTVVHQDWLNGKEYKCKVSNKGLAPIEKTISKTKGQPREPQVYTLPPSREEMTKNQVSLTCLVKGFYPSDISVEWESNGQPENNYKTTPPMLDSDGSFFLYSKLTVDKSRWQQGNVFSCSVMHEALHNHYTQKSLSLSPGK
light: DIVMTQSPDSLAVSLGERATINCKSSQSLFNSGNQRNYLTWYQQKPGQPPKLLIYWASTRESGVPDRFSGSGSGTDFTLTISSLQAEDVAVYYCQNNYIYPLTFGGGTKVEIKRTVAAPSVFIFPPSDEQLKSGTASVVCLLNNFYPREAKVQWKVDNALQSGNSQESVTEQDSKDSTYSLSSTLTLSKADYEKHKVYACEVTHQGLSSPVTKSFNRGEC
notes: IgG2-mut: deletion of 329 (EU index); anti-claudin18.2 variable regions of Fcmut-01
B10: Fcmut-11 (antibody, human IgG2, kappa)
heavy: QVQLVQSGAEVKKPGSSVKVSCKASGYSFSSYNIHWVRQAPGQGLEWMGYIAPFQGDSRYNQKFKGRVTITADKSTSTAYMELSSLRSEDTAVYYCARLNRGNSLDYWGQGTLVTVSSASTKGPSVFPLAPCSRSTSESTAALGCLVKDYFPEPVTVSWNSGALTSGVHTFPAVLQSSGLYSLSSVVTVPSSNFGTQTYTCNVDHKPSNTKVDKTVERKCCVECPPCPAPPVAGPSVFLFPPKPKDTLMISRTPEVTCVVVDVSHEDPEVQFNWYVDGVEVHNAKTKPREEQFNSTFRVVSVLTVVHQDWLNGKEYKCKVSNKGLGPIEKTISKTKGQPREPQVYTLPPSREEMTKNQVSLTCLVKGFYPSDISVEWESNGQPENNYKTTPPMLDSDGSFFLYSKLTVDKSRWQQGNVFSCSVMHEALHNHYTQKSLSLSPGK
light: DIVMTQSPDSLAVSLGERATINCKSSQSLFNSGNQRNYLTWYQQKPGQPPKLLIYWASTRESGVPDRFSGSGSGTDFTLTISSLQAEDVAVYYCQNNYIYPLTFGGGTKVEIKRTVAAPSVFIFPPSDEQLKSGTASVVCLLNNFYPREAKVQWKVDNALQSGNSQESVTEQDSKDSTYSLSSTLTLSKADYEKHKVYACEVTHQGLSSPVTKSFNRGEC
notes: IgG2-mut: deletion of 329, G at 330 (EU index)
B11: Fcmut-15 (antibody, human IgG2, kappa)
heavy: QVQLVQSGAEVKKPGSSVKVSCKASGYSFSSYNIHWVRQAPGQGLEWMGYIAPFQGDSRYNQKFKGRVTITADKSTSTAYMELSSLRSEDTAVYYCARLNRGNSLDYWGQGTLVTVSSASTKGPSVFPLAPCSRSTSESTAALGCLVKDYFPEPVTVSWNSGALTSGVHTFPAVLQSSGLYSLSSVVTVPSSNFGTQTYTCNVDHKPSNTKVDKTVERKCCVECPPCPAPPAAGPSVFLFPPKPKDTLMISRTPEVTCVVVDVSHEDPEVQFNWYVDGVEVHNAKTKPREEQFNSTFRVVSVLTVVHQDWLNGKEYKCKVSNKGLGPIEKTISKTKGQPREPQVYTLPPSREEMTKNQVSLTCLVKGFYPSDISVEWESNGQPENNYKTTPPMLDSDGSFFLYSKLTVDKSRWQQGNVFSCSVMHEALHNHYTQKSLSLSPGK
light: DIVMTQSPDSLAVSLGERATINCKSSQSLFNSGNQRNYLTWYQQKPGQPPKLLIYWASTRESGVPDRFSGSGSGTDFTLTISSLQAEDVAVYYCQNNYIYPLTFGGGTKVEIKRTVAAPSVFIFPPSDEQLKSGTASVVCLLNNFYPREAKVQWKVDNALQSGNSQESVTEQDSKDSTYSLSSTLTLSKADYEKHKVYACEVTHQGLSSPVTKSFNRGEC
notes: IgG2-mut: A at 234, deletion of 329, G at 330 (EU index)
B12: Fcmut-14 (antibody, human IgG2, kappa)
heavy: QVQLVQSGAEVKKPGSSVKVSCKASGYSFSSYNIHWVRQAPGQGLEWMGYIAPFQGDSRYNQKFKGRVTITADKSTSTAYMELSSLRSEDTAVYYCARLNRGNSLDYWGQGTLVTVSSASTKGPSVFPLAPCSRSTSESTAALGCLVKDYFPEPVTVSWNSGALTSGVHTFPAVLQSSGLYSLSSVVTVPSSNFGTQTYTCNVDHKPSNTKVDKTVERKCCVECPPCPAPPAAGPSVFLFPPKPKDTLMISRTPEVTCVVVDVSHEDPEVQFNWYVDGVEVHNAKTKPREEQFNSTFRVVSVLTVVHQDWLNGKEYKCKVSNKGLAPIEKTISKTKGQPREPQVYTLPPSREEMTKNQVSLTCLVKGFYPSDISVEWESNGQPENNYKTTPPMLDSDGSFFLYSKLTVDKSRWQQGNVFSCSVMHEALHNHYTQKSLSLSPGK
light: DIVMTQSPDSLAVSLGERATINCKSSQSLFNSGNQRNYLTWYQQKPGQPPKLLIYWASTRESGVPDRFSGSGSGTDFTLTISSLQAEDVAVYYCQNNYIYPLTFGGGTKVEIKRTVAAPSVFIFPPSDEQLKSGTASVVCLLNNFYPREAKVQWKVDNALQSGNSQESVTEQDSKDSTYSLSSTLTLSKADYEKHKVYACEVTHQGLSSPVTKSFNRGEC
notes: IgG2-mut: A at 234, deletion of 329 (EU index)

In this assay the target is T1, human C1q (human, UniProt P02745 23-245; P02746 28-253; P02747 29-245).
T1 construct: Bought C1q (Complement Technology); also called C1q antigen
T1 sequence (P02745 23-245 limits assumed, chain 1 of 3): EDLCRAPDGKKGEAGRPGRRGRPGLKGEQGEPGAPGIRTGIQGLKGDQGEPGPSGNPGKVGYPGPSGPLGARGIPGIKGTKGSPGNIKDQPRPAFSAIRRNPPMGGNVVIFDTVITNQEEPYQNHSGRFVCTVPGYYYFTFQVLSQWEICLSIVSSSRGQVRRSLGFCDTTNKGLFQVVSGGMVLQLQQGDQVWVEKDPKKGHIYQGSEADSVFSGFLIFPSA
T1 sequence (P02746 28-253 limits assumed, chain 2 of 3): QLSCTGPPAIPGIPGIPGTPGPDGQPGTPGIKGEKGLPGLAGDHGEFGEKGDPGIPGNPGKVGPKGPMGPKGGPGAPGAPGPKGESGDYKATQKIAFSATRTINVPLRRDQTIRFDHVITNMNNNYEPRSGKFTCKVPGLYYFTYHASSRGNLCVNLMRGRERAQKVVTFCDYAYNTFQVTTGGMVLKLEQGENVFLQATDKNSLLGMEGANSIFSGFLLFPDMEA
T1 sequence (P02747 29-245 limits assumed, chain 3 of 3): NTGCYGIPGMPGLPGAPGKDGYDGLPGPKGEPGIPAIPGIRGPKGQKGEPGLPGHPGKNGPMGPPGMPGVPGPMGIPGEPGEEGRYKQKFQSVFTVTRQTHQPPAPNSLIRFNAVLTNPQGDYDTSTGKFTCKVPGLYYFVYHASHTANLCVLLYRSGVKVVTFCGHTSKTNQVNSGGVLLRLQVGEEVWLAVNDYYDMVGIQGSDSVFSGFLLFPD
The experiment in a line: BLI (Octet), biotinylated antibody on SA sensor.
Experimental: The antibody was diluted to approximately 100 nM, and C1q (Δ099, Complement Technology) was diluted to 40 nM.
Detection was conducted using Fortebio Octet Red96e, and the sensors were arranged according to the positions of the samples. […] After the experiment was completed, KD values were analyzed using ForteBio Octet analysis software, the coordinate axis data were derived, and Graphpad Prism 8 software was used for plotting.
For B1, the binding result is given as “no binding (tested: C1q 40 nM)”.
In the case of B2 it was “no binding (tested: C1q 40 nM)”; in that of B3, “no binding (tested: C1q 40 nM)”; in that of B4, “no binding (tested: C1q 40 nM)”.
In the case of B5 it was “no binding (tested: C1q 40 nM)”.
Next, B6: “no binding (tested: C1q 40 nM)”.
For B7, the binding result is on record as “no binding (tested: C1q 40 nM)”.
In the case of B8, the binding result is on record as “no binding (tested: C1q 40 nM)”.
Regarding B9, the binding result is given as “no binding (tested: C1q 40 nM)”.
In the case of B10, the binding result is given as “no binding (tested: C1q 40 nM)”.
Consider B11, for which the binding result was “no binding (tested: C1q 40 nM)”.
In the case of B12 it was “no binding (tested: C1q 40 nM)”.
